Results as given in US20260356928 (published 2026).

Molecular target: CRMP1 (human, UniProt Q14194)
Assay: ELISA

B1: NI-504.3E7 (antibody, V domains shown)
VH: EVQLVETGGGFVQPGGSLQLSCAVSGFPYSGTSFHWVRQVSGKGLEWIGRIRSKSDNYETSYTESLKGRFIVSRDDSKNMVRLHLYSLRTEDTALYYCTTGIIVVDTSYLDHWGRGTLVTVSS
VL: SYELTQPPSASVSPGQTARITCSGAALPKKYAYWYQLKSGQAPVLVIYEDTKRPSGIPERFSGSSSGTLATLTINGALVEDEADYYCYSTDSSGDVWVFGGGTKLTVL
An EC50 of 69 nM was found for B1 in this work.
